Reference: patent US20250213627A1, “RECOMBINANT MICROORGANISM-BASED METHODS AND COMPOSITIONS FOR TREATMENT OF DISEASE” (Baylor College of Medicine, priority 2021, published 2025)

Legend:
[1] = molecular target: Kv1.3 potassium channel (species not stated for this experiment); assay: cell-based or functional assay
rat IgG = assay: ELISA positive control, wells coated with 1 µg/ml rat IgG, anti-rat IgG-HRP and TMB

“HA-tagged ShK-235 secreted by LrS235-HA (peptide)” showed a block of peak Kv1.3 currents by culture supernatant (patch-clamp) [1] of 25%.

With anti-rat IgG-HRP (antibody) the reading at 450 nm (rat IgG) was 3.3 OD 450 nm.
